Results reported in the supplement of paper PMC9170038.

Tested on: MS2 coat protein
Experiment: apparent KD of MS2 coat protein; designed switch direction (-1 OFF switch, 1 ON switch): -1; higher = weaker reporter binding
Outline: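 Designed RNA switches sharing common flanks were transcribed on Illumina chips by stalled E. coli RNA polymerase. They were titrated with SNAP-549-labelled MS2 coat protein, from 0.7 or 1.5 nM doubling to 3 µM, in Tris-HCl pH 7.5 buffer with KCl, MgCl2, BSA, DTT, tRNA and Tween-20. Titrations ran without input, with 200 uM small-molecule ligand, or with an oligonucleotide input. The apparent KD of each design is the median over its clusters, after curve-fitting of normalised cluster fluorescence.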

[1] = input ligand: microRNA oligo, concentration not stated
[2] = Eterna round: R95, input ligand: FMN 200 uM
[3] = Eterna round: R95, input ligand: microRNA oligo, concentration not stated
[4] = Eterna round: R95, input ligand: none

Sequence	apparent KD of MS2 coat protein (input ligand: FMN 200 uM) [nM]	apparent KD of MS2 coat protein (input ligand: none) [nM]	apparent KD of MS2 coat protein [1] [nM]	apparent KD of MS2 coat protein [2] [nM]	apparent KD of MS2 coat protein [3] [nM]	apparent KD of MS2 coat protein [4] [nM]
GUCGUACAUGAGGAUCACCCAUGUGAGGAUAUGGGCGGCGCCGCAAAAGCGGCGCCGCCCAGAAGGCGCAUGAU [Malcxlusion 6 - Jieux - Exclusion 1] (Eterna round: R97, puzzle: Exclusion 1)	234	79.6	–	–	–	–
UUUAGUUCAGGAUAUGUAGAUAUUAACAUGAGGAUCACCCAUGUCGAUCCUGAAUUAACUACAGAAGGGAACAUUU [Mod of Brourd 5 - Jieux - Exclusion 5] (Eterna round: R97, puzzle: Exclusion 5)	69.6	17.8	–	–	–	–
AGUACUAACACGGGUGUGUUAGUACAAUAAGCUUGUGAAACAUGAGGAUCACCCAUGUCCUCAUAAGCUCGUCUUAU [salish99_TOv2_r3_075] (Eterna round: R96, puzzle: Sensor v3, turn-off variant 2)	15.3	16.6	503	–	–	–
AGUACUAACACGGCUGUGUUAGUACAAUAAGCUUGUGAAACAUGAGGAUCACCCAUGUCCUCAUAAGCUCGUCUUAU [salish99_TOv2_r3_078] (puzzle: Sensor v3, turn-off variant 2)	–	–	–	18	580	15.6
UGUCAGAUGGUAGGAUAUCCAUAUCGAGUGACCCUUUCAUAACAUGAGGAUCACCCAUGUCGGUGGGAGAAGGGCCGUACGGUG [salish99_ExNG02_R04_024] (Eterna round: R96, puzzle: Exclusion NG 2)	27.1	36.2	29.6	–	–	–
AACUUCUGAGGAUAUACAUAGAUUUACAUGAGGAUCACCCAUGUUCCUCUAUGUAUAAAUGUAGAAGGCAGAAGAU [Mat - Exclusion 5 - JL Mod - D62] (Eterna round: R97, puzzle: Exclusion 5)	129	18.4	–	–	–	–
CCCAGGGCAGGAUAUAGAGGGCGAAACAUGAGGAUCACCCAUGUGACCUCGGAACAGCUGCUAGAAGGGCCAAAUU [Beesquti] (puzzle: Exclusion 5)	–	–	–	21.1	14.8	15.3
ACAUUUUAUCCAUGAUAUCACAUGAGGAUCACCCAUGUUAAGGCGAUUUUGAUUUGUAAGCUUUGUGCUCGACUUAU [JR_STOV1_Sub054] (Eterna round: R97, puzzle: Sensor, turn-off variant 1)	35.6	42.1	–	–	–	–
GUGGGUUACAUGAGGAUCACCCAUGUAUAGUGGGAAAAGAUAUAGGAUAUAAUAUAAAAAUUAUAUUAGAAGGAUAGAGACUAG [AK ExNG3-1.1] (Eterna round: R96, puzzle: Exclusion NG 3)	727	896	260	–	–	–
GCUAGGAGUGUGAGGAUAUGCUGAUCCUUGGAUCAGCAGAAGGCACAUGAGGAUCACCCAUGUGAAGACCUAGC [Mat - Exclusion 4 - JL Mod - D2] (Eterna round: R97, puzzle: Brourd's mod of Exclusion 4)	169	30	–	–	–	–
UAAUUGUGAGGAUAUCUGGCUUCGAUCGUGAGAUCGAGGCUAGAGAAGGCACAUGAGGAUCACCCAUGUUCCUU [jl-ex4-4.10 salish99 mod] (Eterna round: R97, puzzle: Exclusion 4)	85.2	21.5	–	–	–	–
GUUACACAUGAGGAUCACCCAUGUGAGGAUAUGGAUUCGUUAGAAGUAGAAGAUGGAUCCAGAAGGCGCGUGAG [JR_Ex1_Sub079] (Eterna round: R97, puzzle: Exclusion 1)	160	62.7	–	–	–	–
GAUGGACAUGAGGAUCACCCAUGUAAGGAUAUACGGUUGGUAGAGAGAGAGAGGAAUGGUAGAAGGUACGGAGG [JR_Exclu1_Sub052] (puzzle: Exclusion 1)	–	–	–	38.7	43.1	55.9
AGCCUAGCAGGAUAUGCCCGGGAUAACAUGAGGAUCACCCAUGUGACCGAUUGAUGUCCUGCAGAAGGGCUAGGGA [JL-EX5-4.00 ViennaUCT mod] (Eterna round: R97, puzzle: Exclusion 5)	20.9	18.5	–	–	–	–
UCAUAACAUGAGGAUCACCCAUGUCAGGAUAUGAUACUAUGUACUUCGGUACAUAGUAUCAGAAGGGACAUACU [Ex1-3: 12] (puzzle: Exclusion 1)	–	–	–	–	103	–
UCAUGUUUAGAGGAUAUGAUUACUCUAGAGUGAUCAGAAGGCUAGACAUGAGGAUCACCCAUGUCAGAACAUGA [Exclusion 6 - B - 16:b] (puzzle: Exclusion 6)	–	–	–	95.4	47.6	46.5
ACAAGCUUUUAGAUUUUCAACAUGAGGAUCACCCAUGUUCGUCUUAUGCUAGUGCGAGUGCGGUGUACUCGUAUUAG [JL TOV1 3.81 sellena mod] (Eterna round: R97, puzzle: Sensor, turn-off variant 1)	18.2	16.8	–	–	–	–
CGGCAUGUACAAGGAUAUCAGCACGAUUAGUGCUGAGAAGGUGUAACAUGAGGAUCACCCAUGUAGAUCAUUAACCGAUUAAUU [ENG1/9-A2] (Eterna round: R96, puzzle: Exclusion NG 1)	145	60.7	64.3	–	–	–
AAUUAAUAUCAGGAUAUGACGUGCCUCGGCACGUCAGAAGGGAUGACAUGAGGAUCACCCAUGUGAUCAAUUAA [E6/1-A2] (Eterna round: R97, puzzle: Exclusion 6)	153	28.7	–	–	–	–
CCCUCACAUGAGGAUCACCCAUGUCAGGAUAUCUAGUCAGACAGUGUAGCACUGCUGAAGAGAAGGGACGUAAA [Isinzare] (puzzle: Exclusion 1)	–	–	–	–	15.9	–
GUGCCGCGAGGAUAUACAGACGGGUCCAGUACGUGUCUUGGACUUGAGGAUCACCCAAGUAGAAGGCGUCUCAG [salish99_ex2_r4_612] (Eterna round: R97, puzzle: Exclusion 2)	37.6	48.9	–	–	–	–
CCGUGGCAAGGAUAUACGUAGGAGAGGAAGGCAAGAGAAGGACAUGAGGAUCACCCAUGUAGAAGGUGCAGAUC [JR_Exclu2_Sub030] (puzzle: Exclusion 2)	–	–	–	–	48.3	–
AGAAGUAGUACCCGAUCCUACAUGAGGAUCACCCAUGUAGCUAGACGUGCACGCGAUGCUCGUCAGACUACCAGAUG [salish99_TOv1_r3_032] (puzzle: Sensor v3, turn-off variant 1)	–	–	–	153	144	189
CCGGUAGUAGUCAGGAUAUUCGAUUUUCACCAAGCGAAGAAGGGACAUGAGGAUCACCCAUGUUAGGUGAACGG [Eternabot (L2) Solution 68] (Eterna round: R97, puzzle: Brourd's mod of Exclusion 4)	196	37.6	–	–	–	–
UGUUGGUACGUAGGAUAUCCACCAACAGGUGGAAGGAUAUGUACGCAGAAGGUUCGCCAACAGGCGGAGAAGGACGUGGUAACU [pwkr exNG2 2xF7 2xFMN.29] (Eterna round: R96, puzzle: Exclusion NG 2)	34.6	169	73.8	–	–	–
